This is an account of results in article PMC7225076.

Holding throughout (assay): EMSA
On the technique in general: Mobility shift assays separate free from complexed probe on a gel.

In one data set the target is T1, mDHX36 delta-OB-fold (Mus musculus, UniProt B2RQS6 46-834+895-981, internal_change).
T1 sequence: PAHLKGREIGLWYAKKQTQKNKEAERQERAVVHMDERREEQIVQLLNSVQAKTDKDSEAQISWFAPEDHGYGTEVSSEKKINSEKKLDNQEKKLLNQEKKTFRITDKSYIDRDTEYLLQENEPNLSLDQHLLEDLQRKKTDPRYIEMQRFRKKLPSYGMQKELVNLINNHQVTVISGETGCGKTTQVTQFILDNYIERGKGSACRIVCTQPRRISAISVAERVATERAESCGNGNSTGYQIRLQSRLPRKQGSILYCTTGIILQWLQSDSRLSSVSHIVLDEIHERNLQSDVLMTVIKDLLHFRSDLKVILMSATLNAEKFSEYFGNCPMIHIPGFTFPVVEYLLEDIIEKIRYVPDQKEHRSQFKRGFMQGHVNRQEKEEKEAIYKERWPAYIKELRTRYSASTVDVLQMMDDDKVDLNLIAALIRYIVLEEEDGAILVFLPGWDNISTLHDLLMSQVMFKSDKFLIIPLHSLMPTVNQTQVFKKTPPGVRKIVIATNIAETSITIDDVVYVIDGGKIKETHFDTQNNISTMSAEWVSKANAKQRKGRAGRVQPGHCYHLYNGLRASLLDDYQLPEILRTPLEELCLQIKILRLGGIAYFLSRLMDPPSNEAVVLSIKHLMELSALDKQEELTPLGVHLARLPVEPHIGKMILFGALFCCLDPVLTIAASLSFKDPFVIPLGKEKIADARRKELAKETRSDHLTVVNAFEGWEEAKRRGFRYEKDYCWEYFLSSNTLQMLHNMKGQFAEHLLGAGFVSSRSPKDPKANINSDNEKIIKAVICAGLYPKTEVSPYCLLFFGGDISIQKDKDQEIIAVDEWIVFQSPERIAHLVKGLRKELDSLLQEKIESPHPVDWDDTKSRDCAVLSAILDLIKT

For data set [1], the target named is T2, WT mDHX36 (46-982) (Mus musculus, UniProt B2RQS6 46-982).
T2 sequence: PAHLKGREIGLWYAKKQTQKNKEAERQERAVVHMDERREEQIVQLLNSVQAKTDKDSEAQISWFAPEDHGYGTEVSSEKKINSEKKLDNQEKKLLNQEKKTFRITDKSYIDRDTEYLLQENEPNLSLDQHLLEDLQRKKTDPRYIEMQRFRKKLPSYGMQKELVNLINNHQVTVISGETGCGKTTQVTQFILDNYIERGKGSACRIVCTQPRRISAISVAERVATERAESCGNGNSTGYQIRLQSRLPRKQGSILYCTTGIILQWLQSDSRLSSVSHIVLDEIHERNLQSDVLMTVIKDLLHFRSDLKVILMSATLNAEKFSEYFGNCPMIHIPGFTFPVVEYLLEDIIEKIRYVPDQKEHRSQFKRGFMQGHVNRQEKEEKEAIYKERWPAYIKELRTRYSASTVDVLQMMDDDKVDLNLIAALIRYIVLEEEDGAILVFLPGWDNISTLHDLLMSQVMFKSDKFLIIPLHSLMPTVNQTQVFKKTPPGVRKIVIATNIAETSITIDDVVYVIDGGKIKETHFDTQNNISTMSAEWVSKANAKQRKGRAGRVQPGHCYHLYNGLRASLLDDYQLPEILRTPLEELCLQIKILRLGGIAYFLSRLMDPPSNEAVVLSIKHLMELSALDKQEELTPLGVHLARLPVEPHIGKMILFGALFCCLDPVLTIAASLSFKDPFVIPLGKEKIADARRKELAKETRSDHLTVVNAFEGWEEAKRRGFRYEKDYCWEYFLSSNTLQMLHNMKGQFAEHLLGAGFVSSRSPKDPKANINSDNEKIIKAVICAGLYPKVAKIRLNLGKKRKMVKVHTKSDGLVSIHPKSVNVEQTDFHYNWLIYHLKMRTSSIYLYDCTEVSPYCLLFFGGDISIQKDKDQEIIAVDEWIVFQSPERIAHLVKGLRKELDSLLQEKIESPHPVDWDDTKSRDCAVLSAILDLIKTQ

For data set [2], the target named is T2, WT mDHX36 (46-982). This is another data set of the same source.

Where two headings read alike, the source gives them in different places.

In the case of UUAGGGGGAGGGGGAUGGGGGAGGGGGAAAAAAAAAAAAAAA (structured_RNA) [GQI (GQ1) intramolecular RNA G-quadruplex], the “apparent K (half saturation)” value with mDHX36 delta-OB-fold was roughly 50 nM. The binding result with WT mDHX36 (46-982) [1] is reported as “binds”.

B1: RNA duplex R16/R31 (dsRNA)
RNA 1: AGCACCGUAAAGACGC
RNA 2: GCGUCUUUACGGUGCUAAAAAAAAAAAAAAA
As for B1, the binding result in the data set with WT mDHX36 (46-982) [2] was “binds”.
